{
  "source": "patent US20230212279A1",
  "about": "“TREATMENT AND PREVENTION OF DISEASE CAUSED BY TYPE IV COLLAGEN DYSFUNCTION” (Singapore Health Services PTE, LTD., priority 2020, published 2023)",
  "origin": "cited, not measured here",
  "biological_target": "T1, IL-11Rα (Homo sapiens, UniProt Q14626)",
  "T1 sequence (Q14626 23-422)": "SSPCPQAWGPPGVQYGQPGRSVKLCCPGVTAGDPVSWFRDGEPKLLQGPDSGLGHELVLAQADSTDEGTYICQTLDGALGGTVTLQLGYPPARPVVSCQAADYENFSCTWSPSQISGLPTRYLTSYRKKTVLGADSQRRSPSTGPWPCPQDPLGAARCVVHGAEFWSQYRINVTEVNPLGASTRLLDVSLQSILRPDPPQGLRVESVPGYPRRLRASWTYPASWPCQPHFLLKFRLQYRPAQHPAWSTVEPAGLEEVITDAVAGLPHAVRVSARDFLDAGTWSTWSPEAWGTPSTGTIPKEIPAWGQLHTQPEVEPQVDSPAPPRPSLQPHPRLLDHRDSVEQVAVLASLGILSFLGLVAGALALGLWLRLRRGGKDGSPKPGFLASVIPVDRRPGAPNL",
  "settings": "IL-11 binding to IL-11Rα alone, low affinity; cited from earlier work",
  "data": [
    {"molecule": "IL-11: pleiotropic cytokine, member of the IL-6 family of cytokines (protein) PGPPAGSPRVSSDPRADLDSAVLLTRSLLADTRQLAAQMRDKFPADGDHSLDSLPTLAMSAGTLGSLQLPGVLTRLRVDLMSYLRHVQWLRRAGGPSLKTLEPELGALQARLERLLRRLQLLMSRLALPQAAPDQPVIPLGPPASAWGSIRAAHAILGGLHLTLDWAVRGLLLLKTRL", "values": [
      {"measurement": "Kd", "value": "~22", "unit": "nM"}
    ]}
  ]
}
